The text below walks through data of IntAct's records for PubMed 21321230.

First the molecules themselves.
B1: Netrin receptor DCC (Rattus norvegicus (Rat)), Q63155 (parent)
chain: MENSLGCVWVPKLAFVLFGASLLSAHLQVTGFQIKPFTSLHFVSEPSDAVTMRGGNVLLNCSAESDRGVPVIKWKKDGLILALGMDDRKQQLPNGSLLIQNILHSRHHKPDEGLYQCEASLGDSGSIISRTAKVMVAGPLRFLSQTESITAFMGDTVLLKCEVIGDPMPTIHWQKNQQDLNPIPGDSRVVVLPSGALQISRLQPGDSGVYRCSARNPASTRTGNEAEVRILSDPGLHRQLYFLQRPSNVIAIEGKDAVLECCVSGYPPPSFTWLRGEEVIQLRSKKYSLLGGSNLLISNVTDDDSGTYTCVVTYKNENISASAELTVLVPPWFLNHPSNLYAYESMDIEFECAVSGKPVPTVNWMKNGDVVIPSDYFQIVGGSNLRILGVVKSDEGFYQCVAENEAGNAQSSAQLIVPKPAIPSSSILPSAPRDVVPVLVSSRFVRLSWRPPAEAKGNIQTFTVFFSREGDNRERALNTTQPGSLQLTVGNLKPEAMYTFRVVAYNEWGPGESSQPIKVATQPELQVPGPVENLHAVSASPTSILITWEPPAYANGPVQGYRLFCTEVSTGKEQNIEVDGLSYKLEGLKKFTEYTLRFLAYNRYGPGVSTDDITVVTLSDVPSAPPQNVSLEVVNSRSIKVSWLPPPSGTQNGFITGYKIRHRKTTRRGEMETLEPNNLWYLFTGLEKGSQYSFQVSAMTVNGTGPPSNWYTAETPENDLDESQVPDQPSSLHVRPQTNCIIMSWTPPLNPNIVVRGYIIGYGVGSPYAETVRVDSKQRYYSIERLESSSHYVISLKAFNNAGEGVPLYESATTRSITDPTDPVDYYPLLDDFPTSGPDVSTPMLPPVGVQAVALTHEAVRVSWADNSVPKNQKTSDVRLYTVRWRTSFSASAKYKSEDTTSLSYTATGLKPNTMYEFSVMVTKNRRSSTWSMTAHATTYEAAPTSAPKDLTVITREGKPRAVIVSWQPPLEANGKITAYILFYTLDKNIPIDDWIMETISGDRLTHQIMDLSLDTMYYFRIQARNAKGVGPLSDPILFRTLKVEHPDKMANDQGRHGDGGYWPVDTNLIDRSTLNEPPIGQMHPPHGSVTPQKNSNLLVITVVTVGVLTVLVVVIVAVICTRRSSAQQRKKRATHSASKRKGSQKDLRPPDLWIHHEEMEMKNIEKPAGTDPAGRGSPIQSCQDLTPVSHSQSESQMGSKSASHSGQDTEEAGSSMSTLERSLAARRATRTKLMIPMEAQSNNPAVVSAIPVPTLESAQYPGILPSPTCGYPHPQFTLRPVPFPTLSVDRGFGAGRTVSEGPTAQQQPMLPPAQPEHPSSEEAPSRTIPTACVRPTHPLRSFANPLLPPPMSAIEPKVPYTPLLSQPGPTLPKTHVKTASLGLAGKARSPLLPVSVPTAPEVSEESHKPTEDPASVYEQDDLSEQMASLEGLMKQLNAITGSAF

This assay covers variants of B1. The conditions noted are these: with myo10_human MYO10, Q9HD67.
Sequence of myo10_human MYO10, Q9HD67 (Q9HD67 whole entry): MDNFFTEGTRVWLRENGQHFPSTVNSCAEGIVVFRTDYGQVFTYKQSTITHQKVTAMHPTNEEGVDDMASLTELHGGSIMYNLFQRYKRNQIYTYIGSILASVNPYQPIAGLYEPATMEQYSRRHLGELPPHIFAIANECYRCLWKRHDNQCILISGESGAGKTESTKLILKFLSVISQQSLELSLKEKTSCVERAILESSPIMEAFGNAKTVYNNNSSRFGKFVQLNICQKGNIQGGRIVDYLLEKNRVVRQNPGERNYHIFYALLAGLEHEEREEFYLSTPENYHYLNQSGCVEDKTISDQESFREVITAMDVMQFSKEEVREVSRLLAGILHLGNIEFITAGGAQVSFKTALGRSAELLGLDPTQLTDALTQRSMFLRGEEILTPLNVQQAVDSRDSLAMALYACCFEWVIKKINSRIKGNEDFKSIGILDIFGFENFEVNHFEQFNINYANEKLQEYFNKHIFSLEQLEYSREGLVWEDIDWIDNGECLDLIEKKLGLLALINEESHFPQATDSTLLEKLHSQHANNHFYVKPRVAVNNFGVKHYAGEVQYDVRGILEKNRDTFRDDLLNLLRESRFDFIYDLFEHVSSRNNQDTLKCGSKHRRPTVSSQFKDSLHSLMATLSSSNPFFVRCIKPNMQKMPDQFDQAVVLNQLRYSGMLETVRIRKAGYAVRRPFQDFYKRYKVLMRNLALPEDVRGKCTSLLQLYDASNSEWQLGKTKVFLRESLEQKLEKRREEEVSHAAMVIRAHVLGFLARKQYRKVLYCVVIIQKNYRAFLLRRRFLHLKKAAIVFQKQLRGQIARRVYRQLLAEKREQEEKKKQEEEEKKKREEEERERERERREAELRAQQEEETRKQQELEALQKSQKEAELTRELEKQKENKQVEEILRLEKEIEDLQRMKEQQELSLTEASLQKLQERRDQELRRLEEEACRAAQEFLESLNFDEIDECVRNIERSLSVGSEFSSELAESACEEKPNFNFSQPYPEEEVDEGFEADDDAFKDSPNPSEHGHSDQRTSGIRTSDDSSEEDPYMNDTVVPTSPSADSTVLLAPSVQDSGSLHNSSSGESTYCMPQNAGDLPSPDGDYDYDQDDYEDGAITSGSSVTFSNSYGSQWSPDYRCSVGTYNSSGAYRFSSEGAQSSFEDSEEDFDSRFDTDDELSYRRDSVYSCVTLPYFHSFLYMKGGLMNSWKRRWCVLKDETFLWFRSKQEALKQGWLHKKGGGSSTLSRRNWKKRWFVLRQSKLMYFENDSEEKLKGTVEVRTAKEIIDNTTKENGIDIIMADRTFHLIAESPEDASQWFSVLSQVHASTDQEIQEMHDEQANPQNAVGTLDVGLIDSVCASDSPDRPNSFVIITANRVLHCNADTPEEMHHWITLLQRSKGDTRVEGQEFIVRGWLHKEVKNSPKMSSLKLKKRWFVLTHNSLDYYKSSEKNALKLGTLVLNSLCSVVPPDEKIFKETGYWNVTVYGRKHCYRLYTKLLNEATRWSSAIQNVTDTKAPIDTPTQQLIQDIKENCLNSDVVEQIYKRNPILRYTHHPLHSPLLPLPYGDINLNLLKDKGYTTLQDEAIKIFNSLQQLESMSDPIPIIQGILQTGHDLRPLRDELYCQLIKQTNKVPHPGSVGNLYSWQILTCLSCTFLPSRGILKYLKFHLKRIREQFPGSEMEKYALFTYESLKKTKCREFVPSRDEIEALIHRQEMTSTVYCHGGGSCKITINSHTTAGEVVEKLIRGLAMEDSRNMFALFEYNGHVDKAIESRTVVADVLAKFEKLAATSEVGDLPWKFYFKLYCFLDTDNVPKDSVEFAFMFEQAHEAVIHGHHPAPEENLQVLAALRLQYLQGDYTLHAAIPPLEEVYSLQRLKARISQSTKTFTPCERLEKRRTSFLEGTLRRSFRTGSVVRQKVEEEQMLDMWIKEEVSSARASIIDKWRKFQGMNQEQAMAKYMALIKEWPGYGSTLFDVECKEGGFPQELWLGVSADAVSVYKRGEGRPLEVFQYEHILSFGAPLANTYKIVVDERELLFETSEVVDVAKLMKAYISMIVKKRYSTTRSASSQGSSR
In the case of L1433A, the “effect of a mutation on the interaction” value is listed as “disrupting interaction strength”.
In the case of L1437A, the “effect of a mutation on the interaction” value is “disrupting interaction strength”.
